Experimental data taken from patent US20100074906A1.

Molecular target: Varicella Zoster Virus (VZV) antigens (lysate of VZV-infected MRC-5 cells, VZV-infected MRC-5 cells, cell-free VZV; ELLEN strain) (Varicella Zoster Virus (ELLEN strain, ATCC VR-586))
Assay: cell-based or functional assay

Binder | VZV-neutralizing activity, IC50 (plaque reduction)
FLAGhis-tagged DDF-VZV1 human Fab expressed using pDLac-VZV1-FLAGhis (Fab) heavy: LESGPGLVKPSETLSLTCSVSGGSITTKDFSWAWIRQPPGKGLEWIGSIYYSGTTHYSPSLKSRVIMSVDTSDNKFSLSLTSVTAADTAVYYCARQLGRSPGIYSFWRDHRTSAFDFWGQGTLATVSAASTKGPSVFPLAPSSKSTSGGTAALGCLVKDYFPEPVTVSWNSGALTSGVHTFPAVLQSSGLYSLSSVVTVPSSSLGTQTYICNVNHKPSNTKVDKKVEPKSCDKTSDYKDDDDKHHHHHH light: ELTQSPSSLSASVGDRVTITCRATQSISSYLSWYQQKPGQAPKLLIYGASNLQSGVPSRFSGSGSGTDFTLTINSLQPEDFATYYCQQTLSTPFTFGPGTRVDFKRTVAAPSVFIFPPSDEQLKSGTASVVCLLNNFYPREAKVQWKVDNALQSGNSQESVTEQDSKDSTYSLSSTLTLSKADYEKHKVYACEVTHQGLSSPVTKSFNRGEC | 2 µg/mL
FLAGhis-tagged DDF-VZV2 human Fab expressed using pDLac-VZV2-FLAGhis (Fab) heavy: LESGGGLVQPGGSLRLSCEASGFTFSSYTMNWVRQAPGKGLEWVSWISSSGSDIYYAESVKGRFTISRDNAKNSLYLQMNSLRDEDTALYYCARDGIDSSSSWGGEPYFYTMDFWGQGTTVIVSSASTKGPSVFPLAPSSKSTSGGTAALGCLVKDYFPEPVTVSWNSGALTSGVHTFPAVLQSSGLYSLSSVVTVPSSSLGTQTYICNVNHKPSNTKVDKKVEPKSCDKTSDYKDDDDKHHHHHH light: not shown | 2 µg/mL
